The numbers were not newly measured in PMC10426772, which cites them from elsewhere.

Series [1] deals with IGF receptor (IGF1R, brain capillary) (Homo sapiens) (UniProt P08069). The experiment in a line: radio-receptor assay with [125I]-IGF2.
Series [2] concerns the target IGF receptor (human BBB) (Homo sapiens) (UniProt P08069). The experiment in a line: radio-receptor assay.
In series [3] the target is insulin receptor (HIR, brain capillary) (Homo sapiens) (UniProt P06213). The experiment in a line: radio-receptor assay with [125I]-insulin.
Series [4] deals with leptin receptor (Homo sapiens) (UniProt P48357). Briefly: radio-receptor assay.
Sequence of leptin receptor (Homo sapiens) (P48357 22-839): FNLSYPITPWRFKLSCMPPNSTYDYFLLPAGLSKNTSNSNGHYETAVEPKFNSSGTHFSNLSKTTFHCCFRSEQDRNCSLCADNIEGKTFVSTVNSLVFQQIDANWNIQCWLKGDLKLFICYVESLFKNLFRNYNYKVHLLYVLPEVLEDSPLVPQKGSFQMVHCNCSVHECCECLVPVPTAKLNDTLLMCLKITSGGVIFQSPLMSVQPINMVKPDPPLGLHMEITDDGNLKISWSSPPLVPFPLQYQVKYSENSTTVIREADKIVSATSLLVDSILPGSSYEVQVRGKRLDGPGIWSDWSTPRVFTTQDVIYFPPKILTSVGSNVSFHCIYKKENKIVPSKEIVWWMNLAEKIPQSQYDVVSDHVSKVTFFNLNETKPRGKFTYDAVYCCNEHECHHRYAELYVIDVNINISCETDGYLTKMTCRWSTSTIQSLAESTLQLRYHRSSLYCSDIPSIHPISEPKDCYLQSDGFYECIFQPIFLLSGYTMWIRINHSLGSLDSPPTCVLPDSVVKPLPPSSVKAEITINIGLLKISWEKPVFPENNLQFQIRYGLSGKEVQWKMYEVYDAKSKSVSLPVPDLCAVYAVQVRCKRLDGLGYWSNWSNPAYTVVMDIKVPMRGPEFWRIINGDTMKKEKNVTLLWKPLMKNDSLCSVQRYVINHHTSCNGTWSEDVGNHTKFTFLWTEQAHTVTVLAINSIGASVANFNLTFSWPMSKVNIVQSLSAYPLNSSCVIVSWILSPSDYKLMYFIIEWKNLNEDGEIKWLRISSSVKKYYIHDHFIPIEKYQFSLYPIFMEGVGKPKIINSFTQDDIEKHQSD

Sequence of leptin (P41159 22-167): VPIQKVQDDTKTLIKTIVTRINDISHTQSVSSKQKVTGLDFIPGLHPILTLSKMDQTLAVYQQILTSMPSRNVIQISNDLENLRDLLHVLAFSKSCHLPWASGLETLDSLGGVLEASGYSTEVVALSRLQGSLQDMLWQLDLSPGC
Sequence of insulin (P01308 90-110): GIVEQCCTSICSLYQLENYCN

Take IGF2 (from UniProt P01344): the Kd in series [1] and in series [2] was 1.1 nM in each case. For insulin (from UniProt P01308), in series [3], the Kd is 1.2 nM. As to leptin (from UniProt P41159), in series [4], the Kd is 5.1 nM.
